Experimental findings from patent publication US20230129812A1 (ACCELERON PHARMA, published 2023) are described below.

Broadly, the Kd is a measure of binding affinity in units of concentration.

Changes are numbered by the printed parent chain. In names and notes the source's numbering stands.

Sequences and labels used below:
T1: GDF11 (UniProt O95390 299-407)
T1 construct: also called BMP11
T1 sequence (looked up): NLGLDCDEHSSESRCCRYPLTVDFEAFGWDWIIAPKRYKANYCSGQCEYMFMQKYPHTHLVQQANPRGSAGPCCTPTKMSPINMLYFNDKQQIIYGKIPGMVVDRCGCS

T2: activin A (UniProt P08476 311-426)
T2 construct: also called ActA
T2 sequence (looked up): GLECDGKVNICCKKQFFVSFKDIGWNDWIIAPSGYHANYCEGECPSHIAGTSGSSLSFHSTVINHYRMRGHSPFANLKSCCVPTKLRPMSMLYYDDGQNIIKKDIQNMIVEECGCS

B1: Soluble ActRIIB-Fc WT (64A) (Fc fusion, UniProt Q13705 19-119, looked up, not shown: a dimerising Fc or GST)
chain: SGRGEAETRECIYYNANWELERTNQSGLERCEGEQDKRLHCYASWANSSGTIELVKKGCWLDDFNCYDRQECVATEENPQVYFCCCEGNFCNERFTHLPEA
notes: Whole entry named
B2: Soluble ActRIIB-Fc D80K (Table 11) (Fc fusion, UniProt Q13705 19-119, looked up, not shown: a dimerising Fc or GST)
chain: B1 chain with D62K
B3: Soluble ActRIIB-Fc D80R (Table 11) (Fc fusion, UniProt Q13705 19-119, looked up, not shown: a dimerising Fc or GST)
chain: B1 chain with D62R
B4: Soluble ActRIIB-Fc D80N (Table 11) (Fc fusion, UniProt Q13705 19-119, looked up, not shown: a dimerising Fc or GST)
chain: B1 chain with D62N
B5: Soluble ActRIIB-Fc WT (64R) (Fc fusion, UniProt Q13705 19-119, looked up, not shown: a dimerising Fc or GST)
chain: B1 chain with A46R
notes: Whole entry named
B6: Soluble ActRIIB-Fc D80M (Table 11) (Fc fusion, UniProt Q13705 19-119, looked up, not shown: a dimerising Fc or GST)
chain: B1 chain with D62M
B7: Soluble ActRIIB-Fc D80F (Table 11) (Fc fusion, UniProt Q13705 19-119, looked up, not shown: a dimerising Fc or GST)
chain: B1 chain with D62F
B8: Soluble ActRIIB-Fc W78A (Table 11) (Fc fusion, UniProt Q13705 19-119, looked up, not shown: a dimerising Fc or GST)
chain: B1 chain with W60A
B9: Soluble ActRIIB-Fc K74A (Table 11) (Fc fusion, UniProt Q13705 19-119, looked up, not shown: a dimerising Fc or GST)
chain: B1 chain with K56A
B10: Soluble ActRIIB-Fc R56A (Table 11) (Fc fusion, UniProt Q13705 19-119, looked up, not shown: a dimerising Fc or GST)
chain: B1 chain with R38A
B11: Soluble ActRIIB-Fc K55A (Table 11) (Fc fusion, UniProt Q13705 19-119, looked up, not shown: a dimerising Fc or GST)
chain: B1 chain with K37A
B12: Soluble ActRIIB-Fc D80G (Table 11) (Fc fusion, UniProt Q13705 19-119, looked up, not shown: a dimerising Fc or GST)
chain: B1 chain with D62G
B13: Soluble ActRIIB-Fc E37A (Table 11) (Fc fusion, UniProt Q13705 19-119, looked up, not shown: a dimerising Fc or GST)
chain: B1 chain with E19A
B14: Soluble ActRIIB-Fc D80A (Table 11) (Fc fusion, UniProt Q13705 19-119, looked up, not shown: a dimerising Fc or GST)
chain: B1 chain with D62A
B15: Soluble ActRIIB-Fc +15tail (Fc fusion, UniProt Q13705 19-134, looked up)
chain: SGRGEAETRECIYYNANWELERTNQSGLERCEGEQDKRLHCYASWANSSGTIELVKKGCWLDDFNCYDRQECVATEENPQVYFCCCEGNFCNERFTHLPEAGGPEVTYEPPPTAPT
notes: not shown: linker and Fc

In the first experiment the target is T1, GDF11. The experiment can be described thus: SPR (Biacore); ligand coupled, receptor flowed over (as reported in WO2006/012627). The source says:
(§1) Other variants have been generated and tested, as reported in WO2006/012627 (incorporated herein by reference in its entirety). See, e.g., pp. 59-60, using ligands coupled to the device and flowing receptor over the coupled ligands. […] Table 11 showing data with respect to these variants is reproduced below: […]
Background: In SPR one partner is held on a chip, and binding of the other changes the refractive index at the surface.
B1 returned a dissociation constant Kd of 260 nM. For B2, the binding result is listed as “no binding”. Still for that read-out and setting: under B3 stands “no binding”; under B4, “no binding”. For the molecule B5, the Kd stood at 86 nM. As to B6, the binding result is reported as “no binding”. As to B7, the binding result is “no binding”.

As for B8, the binding result was “no binding”.

As for B9, the Kd turned out to be 5.3 nM. Turning to B10, the binding result is given as “no binding”. On the same count and under the same terms, next, B11: “no binding”; B12: “no binding”; B13: “no binding”. As for B14, the binding result was “no binding”.

The target in the next experiment is T2, activin A. The experiment is described as above.
Excerpt: as §1
B15 registered a Kd of roughly 26 nM. For B1, binding was characterised by a dissociation constant (Kd) of 180 nM. In other words, the sub-micromolar range. In the case of B2, the binding result is given as “no binding”. In the case of B3, the binding result is “no binding”.

Consider B4, for which the binding result was “no binding”.

B6: the binding result was “no binding”. Take B7: the binding result is listed as “no binding”. The same measure, in the same setting: under B8 stands “no binding”. Consider B9, for which the dissociation constant (Kd) turned out to be 4.35 nM. For the molecule B10, the binding result is recorded as “no binding”. Same read-out and setting: next, B12: “no binding”; B13: “no binding”. The same measure, in the same setting: next, B14: “no binding”.
